According to patent US20110206615A1:

Target: mKO2-Nrf2 fusion molecule (mKO2 fused to amino acids 1-100 of human Nrf2, released from the probe reagent mKO2-Nrf2-100-T2A-Keap1 by self-cleavage at T2A) (human) (UniProt Q16236)
Assay: cell-based or functional assay

Sequence of UniProt Q16236 (Q16236 other isoform, or with tags, fused parts or gaps): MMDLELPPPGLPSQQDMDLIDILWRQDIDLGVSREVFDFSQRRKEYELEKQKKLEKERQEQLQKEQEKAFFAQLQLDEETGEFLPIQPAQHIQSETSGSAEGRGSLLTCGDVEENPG

“human Keap1 (regulatory factor, released from mKO2-Nrf2-100-T2A-Keap1 by self-cleavage at T2A) (from UniProt Q14145 1-624)” showed a fluorescent intensity of mKO2 in HeLa cells after addition of DEM (oxidative stress inducer) at 100 µM of 10 times.
